The RNAGym collection of RNA variant scans (doi:10.1073/pnas.2313332121)
Variants at the floor of the assay were thinned out.

B1: TPR 5TU (parent)
chain: GGAUCUUCUCGAUCUAACAAAAAAGACAAAUCUGCCACAAAGCUUGAGAGCAUCUUCGGAUGCAGAGGCGGCAGCCUUCGGUGGCGCGAUAGCGCCAACGUUCUCAACUAUGACACGCAAAACGCGUGCUCCGUUGAAUGGAGUUUAUCAUG

Variants of: B1
Experiment: polymerase ribozyme fitness, log enrichment relative to wild type (log ratio); higher = more active; in vitro selection for triplet polymerase activity
Method in brief: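 To select mutant libraries of each subunit of a heterodimeric triplet polymerase ribozyme, built by PCR and transcribed, each was annealed with a biotinylated primer, partner subunit and triplets, then incubated frozen at −7 °C. Extended constructs were gel-excised, captured on streptavidin beads and amplified by RT-PCR, in one round carried out in triplicate. Illumina sequencing of input and output libraries kept genotypes with ≥10 input reads and ≥1 read per output. Fitness is the base-2 logarithm of genotype enrichment relative to wild-type enrichment, from inverse-variance-weighted replicate averages.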

Row | Variant | polymerase ribozyme fitness (log ratio)
1 | A20C C63U A64C | ≤ -4.2
2 | G50C C87U A150C U151A | ≤ -4.2
3 | A21U A22G G88A A97G A106C C125U | ≤ -4.2
4 | G34A | -0.292
5 | A26C G50U C54U C96G | -3.92
6 | C57A G59C G84U A107G A115U A137G C149U | ≤ -4.2
7 | G84C C95A A142C | -1.65
8 | U6A A37G G80A C87A U102G G152A | ≤ -4.2
9 | U6G C93A | -1.75
10 | A47C A49G G83A G140A | ≤ -4.2
11 | A49C C57U U101G | -2.69
12 | A26U A39U G58A A66C C93U C149G | ≤ -4.2
13 | G74U A97U | -4.18
14 | C14G A19U G59C G81U C95U G141A | -3.74
15 | A12U C14U A21U A49G C75G C116U A121C U146G U151G | ≤ -4.2
16 | U9C U53A G58U A60C A66C A147C | ≤ -4.2
17 | U7A A26U C27U A41U U55G C93U | ≤ -4.2
18 | A16G C38U G50C U55A C57U C85G A120G A137U G143C | ≤ -4.2
19 | U82C G88C C105U G141A C149U | ≤ -4.2
20 | A47C C57A G94A U144G | 1.12
21 | A3G A26U C72U | ≤ -4.2

Row | Variant | polymerase ribozyme fitness (log ratio)
22 | A20C C63G G152A | -2.4
23 | G84A C95G G141C | -0.311
24 | C5U A40C C54G G92A A121U C132U U146A | ≤ -4.2
25 | A49U C54U | -1.34
26 | C18U A22U U53G C96A | -3.13
27 | C8U C85G | -3.44
28 | U13G C35A A52C | ≤ -4.2
29 | G48C U55A C103G | -0.533
30 | C35U U101G A110U A138G | ≤ -4.2
31 | A60G C123U G124A C131A | -2.39
32 | A89U C123U | 0.89
33 | C69U G94C | -1.65
34 | A29U U31G A47C U61A G81A C95U G100U | ≤ -4.2
35 | C43U C51A C85U A107U U135C | ≤ -4.2
36 | G71U G94C A110G | ≤ -4.2
37 | A49C C96A | -3.04
38 | C8U G25C U82A C87A | ≤ -4.2
39 | G92C C105G | -2.39
40 | G59A C93A | -3.22
41 | A12C C35U G86A C93U | -1.43
42 | U45G U55G A91C U101A A107G | ≤ -4.2

Row | Variant | polymerase ribozyme fitness (log ratio)
43 | U13A A28U C36U G81C | ≤ -4.2
44 | G25A G34U C35G C85G | -4.2
45 | C57G G86A C95U C99U G141U | -3.92
46 | G50A A142C | -3.12
47 | U31C A41G U53A U55A | -0.0378
48 | A21C G86A | -0.32
49 | G94A G143A | -1.01
50 | G83U C93U | -2.69
51 | A3U C76A C87U A113C U130A | ≤ -4.2
52 | G46A G68C G83C A147U | ≤ -4.2
53 | G84U G92A | ≤ -4.2
54 | A21U C36A A64C G86C | ≤ -4.2
55 | C35U A52G A60C A121U | -3.29
56 | U6C A37C C93U | -3.12
57 | G11C G42U U55G C76U | ≤ -4.2
58 | A28G G34U G80A U102A C108G | ≤ -4.2
59 | A40G U82G | -1.38
60 | U44A G46C C75G U102A A120U U130G | -3.99
61 | C43G G50U U61C G86A C95U C125U U146G | ≤ -4.2
62 | A16G A17U A41U C93U C125U U134G | -4.05
63 | G67C A73U A91G G136A A137G | ≤ -4.2

Row | Variant | polymerase ribozyme fitness (log ratio)
64 | A17G G59A C85U G92C C103A A122U | ≤ -4.2
65 | C54U C96A C105G G124U | -3.42
66 | C27G U33C G68U | ≤ -4.2
67 | A3U C8U | -0.611
68 | U13G A20C U55G U90G C95G C105A C116G G124A | ≤ -4.2
69 | A47U G50C C93A C96G | ≤ -4.2
70 | C18U A37C G74C G81C | ≤ -4.2
71 | G25U U55G A122U | -3.1
72 | C5U U13A C57G G141U | -1.34
73 | C93A G136U | -4.17
74 | U9C A23U A24G C38G A89G A91U | ≤ -4.2
75 | C10G A23C U31G C75U C87G C93A G133U G136U | ≤ -4.2
76 | A23C C96G | -3.81
77 | U45A A47U G80U U90A | ≤ -4.2
78 | C51U A60U G84A A98G A121C G143U A147C | ≤ -4.2
79 | G11C U15G A20C A28U C85U G140U U145G | ≤ -4.2
80 | A21U G59U C105U C129A | -2.46
81 | U33G U55C C76U G86U C105A C116U | ≤ -4.2
82 | C5A A19U G86C A147C | -3.38
83 | G42U A106C | -4.17
84 | G50C C129U | -3.94
